According to patent US20210238298A1 (ALLIGATOR BIOSCIENCE, published 2021):
Substitutions are numbered along the chain they refer to.

T1: Human OX40 (R&D systems, #3358_OX) (human, UniProt P43489 29-216)
T1 construct: Bought; Several catalogue numbers are given for it; also called human OX40 (R&D Systems, 3388-OX); OX40-Fc (R&D systems, #3358_OX); not shown: Fc part
T1 sequence: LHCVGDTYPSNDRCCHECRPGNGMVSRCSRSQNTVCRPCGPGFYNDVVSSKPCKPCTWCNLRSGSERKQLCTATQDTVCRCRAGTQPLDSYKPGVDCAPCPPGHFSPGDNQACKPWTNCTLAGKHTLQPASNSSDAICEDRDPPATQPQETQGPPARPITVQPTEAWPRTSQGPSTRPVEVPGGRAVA

T2: extracellular part of human OX40 fused to the transmembrane and intracellular part of hCD40, on CHO cells (human, UniProt P25942 194-277, limits assumed)
T2 construct: domain: transmembrane and intracellular part; also called hOX40 overexpressed on CHO cells; huOX40 (CHO)
T2 sequence: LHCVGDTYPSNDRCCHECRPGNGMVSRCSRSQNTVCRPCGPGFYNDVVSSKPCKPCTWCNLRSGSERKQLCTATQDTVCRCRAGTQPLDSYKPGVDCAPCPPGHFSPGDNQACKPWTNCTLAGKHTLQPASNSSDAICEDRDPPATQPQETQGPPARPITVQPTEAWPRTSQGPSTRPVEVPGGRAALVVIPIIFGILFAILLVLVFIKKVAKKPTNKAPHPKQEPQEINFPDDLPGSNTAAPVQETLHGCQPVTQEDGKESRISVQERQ

T3: OX40 chimera 1549: human OX40 with mouse domains 1A and 4B and non-annotated extracellular region (aa 30-65 … (human; mouse, UniProt P47741 26-61; P47741 125-211)
T3 construct: domain: 1A;domain: 4B and non-annotated extracellular region; Limits derived as for 1544
T3 sequence: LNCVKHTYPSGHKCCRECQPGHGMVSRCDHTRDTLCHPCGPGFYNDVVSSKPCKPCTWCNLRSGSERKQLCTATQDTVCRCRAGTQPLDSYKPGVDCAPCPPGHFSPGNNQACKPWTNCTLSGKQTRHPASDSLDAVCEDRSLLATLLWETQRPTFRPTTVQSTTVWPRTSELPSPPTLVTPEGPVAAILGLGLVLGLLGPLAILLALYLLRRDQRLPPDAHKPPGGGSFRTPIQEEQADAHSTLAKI

B1: anti-OX40 antibody 1168/1135 (antibody, V domains shown)
VH: EVQLLESGGGLVQPGGSLRLSCAASGFTFSGSSMSWVRQAPGKGLEWVSSISYYGGYTYYADSVKGRFTISRDNSKNTLYLQMNSLRAEDTAVYYCARYFPHYYFDYWGQGTLVTVSS
VL: not shown
notes: Tested as IgG
B2: anti-OX40 antibody 1164/1135 (antibody, V domains shown)
VH: B1 VH with S30Y, S35Y, S50G, S52Y, Y53S, Y54S, Y59S, Y99G, F100V, Y103G
VL: not shown
notes: Tested as IgG
B3: anti-OX40 antibody 1542/1135 (antibody, V domains shown)
VH: EVQLLESGGGLVQPGGSLRLSCAASGFTFGSSSMYWVRQAPGKGLEWVSGIGYYSYSTSYADSVKGRFTISRDNSKNTLYLQMNSLRAEDTAVYYCARGYPHHYFDYWGQGTLVTVSS
VL: not shown
notes: Tested as IgG
B4: anti-OX40 antibody 1524/1525 (antibody, V domains shown)
VH: EVQLLESGGGLVQPGGSLRLSCAASGFTFGSYYMGWVRQAPGKGLEWVSSIGSYYGYTYYADSVKGRFTISRDNSKNTLYLQMNSLRAEDTAVYYCARHDYGALDYWGQGTLVTVSS
VL: DIQMTQSPSSLSASVGDRVTITCRASQSISSYLNWYQQKPGKAPKLLIYAASSLQSGVPSRFSGSGSGTDFTLTISSLQPEDFATYYCQQYGPSGLFTFGQGTKLEIK
notes: Tested as IgG
B5: anti-OX40 antibody 1526/1527 (antibody, V domains shown)
VH: EVQLLESGGGLVQPGGSLRLSCAASGFTFSGYSMYWVRQAPGKGLEWVSGIGYSGYGTYYADSVKGRFTISRDNSKNTLYLQMNSLRAEDTAVYYCARYYFHDYAAYSLDYWGQGTLVTVSS
VL: B4 VL with P93S, S94D, G95S, F97L
notes: Tested as IgG
B6: anti-OX40 antibody 1482/1483 (antibody, V domains shown)
VH: EVQLLESGGGLVQPGGSLRLSCAASGFTFSSYAMSWVRQAPGKGLEWVSYISYYSGYTYYADSVKGRFTISRDNSKNTLYLQMNSLRAEDTAVYYCARGYGYLDYWGQGTLVTVSS
VL: DIQMTQSPSSLSASVGDRVTITCRASQSISSYLNWYQQKPGKAPKLLIYAASSLQSGVPSRFSGSGSGTDFTLTISSLQPEDFATYYCQQYGSLLTFGQGTKLEIK
notes: Tested as IgG

target: T1, Human OX40 (R&D systems, #3358_OX); assay: SPR (Biacore), immobilised human OX40
Description: Human OX40 (R&D systems, #3358_OX) was immobilized to the Biacore™ sensor chip, CM5, using conventional amine coupling. The tested antibodies and controls (serially diluted ⅓ or ½ 100-2 nM) were analyzed for binding in HBS-P (GE, #BR-1003-68) at a flow rate of […]. The association was followed for 3 minutes and the dissociation for 20 minutes. Regeneration was performed twice using 50 mM NaOH for 60 seconds. The kinetic parameters and the affinity constants were calculated using 1:1 Langmuir model with drifting baseline. […] The kinetic parameters and the affinity constants were calculated using BIAevaluation 4.1 software.

Q: For B1, which Kd is on record?
A: The Kd was 0.327 nM.

Q: And the koff?
A: The koff was 0.000169 s⁻¹.

Q: What about the kon of the same binder?
A: Its kon is 518000 M⁻¹ s⁻¹.

Q: How did the Kd turn out when B2 was run?
A: Its Kd is 0.308 nM.

Q: And the koff?
A: Its koff is 7.73e-05 s⁻¹.

Q: And the kon?
A: Its kon is 251000 M⁻¹ s⁻¹.

Q: What does the source list for B3?
A: Kd: 0.463 nM; koff: 0.0001 s⁻¹; kon: 216000 M⁻¹ s⁻¹

Q: What does the source list for B4?
A: Kd: 0.811 nM; koff: 0.00139 s⁻¹; kon: 1.71e+06 M⁻¹ s⁻¹

Q: How did the Kd turn out when B5 was run?
A: The Kd was 0.43 nM.

Q: And the koff?
A: The koff was 0.000187 s⁻¹.

Q: What about the kon of the same binder?
A: The kon was 435000 M⁻¹ s⁻¹.

Q: For B6, which Kd is on record?
A: Its Kd is 0.753 nM.

Q: What about the koff of the same binder?
A: Its koff is 0.000584 s⁻¹.

Q: What about the kon of the same binder?
A: Its kon is 776000 M⁻¹ s⁻¹.

target: T2, extracellular part of human OX40 fused …; assay: flow cytometry, cells with human OX40; 95% confidence interval
Description: (§1) For the assay, the transfected cells were incubated with the test antibodies and controls for 30 min at 4° C. and then detected with a-huIgG-PE (Jackson Immunoresearch) 30 min 4° C. Cells were analyzed by flow cytometry with FACS Verse (BD Biosciences).

Q: B1 was tested. Which EC50 did it give?
A: Its EC50 is 0.0636 to 0.131 µg/mL.

Q: For B3, which EC50 is on record?
A: The EC50 was 0.322 to 0.552 µg/mL.

Q: Which EC50 does the source give for B5 here?
A: Its EC50 is 0.172 to 0.429 µg/mL.

Q: How did the EC50 turn out when B6 was run?
A: Its EC50 is 0.082 to 0.182 µg/mL.

target: T1, Human OX40 (R&D systems, #3358_OX); assay: ELISA: human OX40 coated, goat anti-human kappa light chain HRP, luminescence
Description: ELISA plates were coated with human with CTLA-4 (BMS, Orencia) or human OX40 (R&D Systems, 3388-OX) at 0.4 or 0.5 μg/ml, respectively. The ELISA plates were washed with PBST and then blocked with PBST+2% BSA for 1h at room temperature and then washed again with PBST. The bispecific molecules were added in dilution series to the plates and incubated for 1h at room temperature. The ELISA plates were washed, and binding was detected using goat anti human kappa light chain HRP for 1 h at room temperature. SuperSignal Pico Luminescent was used as substrate and luminescence was measured using Fluostar Optima.

Q: B1 was tested. Which “EC50 (read off the curve)” value did it give?
A: Its value is about 0.2 nM.

target: T1, Human OX40 (R&D systems, #3358_OX); assay: ELISA, coated human OX40
Description: ELISA plates were coated with human OX40 (R&D Systems, 3388-OX), CD40 (Ancell), or CD137 (R&D Systems) at 0.1 or 0.5 μg/ml. The ELISA plates were washed with PBST and then blocked with PBST+2% BSA for 1h at room temperature and then washed again with PBST. The antibodies were added in dilution series to the ELISA plates for 1 h at room temperature and then washed with PBST. Binding was detected using goat anti human kappa light chain HRP, incubated for 1h at room temperature. SuperSignal Pico Luminescent was used as substrate and luminescence was measured using Fluostar Optima.

Q: How did the EC50 turn out when B1 was run?
A: Its EC50 is under 1 nM.

Q: How did the EC50 turn out when B2 was run?
A: Its EC50 is under 1 nM.

Q: With B3 as the binder, how does the EC50 read?
A: The EC50 was under 1 nM.

Q: How did the EC50 turn out when B4 was run?
A: The EC50 was under 1 nM.

Q: B5 was tested. Which EC50 did it give?
A: The EC50 was under 1 nM.

Q: Which EC50 does the source give for B6 here?
A: The EC50 was under 1 nM.

target: T3, OX40 chimera 1549: human OX40 with …; assay: flow cytometry, 293-F transfectants

Q: Which “relative MFI vs isotype control” value does the source give for B3 here?
A: The value was 13.

Q: With B4 as the binder, how does the “relative MFI vs isotype control” value read?
A: Its value is 11.2.

Q: Which “relative MFI vs isotype control” value does the source give for B5 here?
A: Its value is 8.5.

Q: Which “relative MFI vs isotype control” value does the source give for B6 here?
A: The value was 8.7.

target: T2, extracellular part of human OX40 fused …; assay: flow cytometry, CHO cells with human OX40 (extracellular part on hCD40 transmembrane and intracellular part), anti-huIgG-PE
Description: as §1, with “The extracellular part of human OX40 was fused to the transmembrane and intracellular part of hCD40 and cloned into pcDNA3.0. The vector was subsequently stably transfected into CHO cells. […] For” for “For”

Q: How did the “EC50 (read off the curve)” value turn out when B2 was run?
A: Its value is about 0.01 µg/mL.

Q: Which “EC50 (read off the curve)” value does the source give for B4 here?
A: The value was about 0.05 µg/mL.

target: extracellular part of OX40 from Macaca mulatta fused to the transmembrane and intracellular part of hCD40, on … (Macaca mulatta; human, UniProt A0A5F7ZKD5 21-541; P25942 194-277); assay: flow cytometry, macOX40-HEK cells; 95% confidence interval
Description: as §1

Q: How did the EC50 turn out when B1 was run?
A: Its EC50 is 0.0905 to 0.194 µg/mL.

Q: B3 was tested. Which EC50 did it give?
A: Its EC50 is 0.722 to 1.41 µg/mL.

Q: With B5 as the binder, how does the EC50 read?
A: The EC50 was 0.292 to 0.589 µg/mL.

Q: Which EC50 does the source give for B6 here?
A: Its EC50 is 0.157 to 0.312 µg/mL.
